Data reported in patent US20200199204A1.

How the values were obtained:
Test in all cases: cell-based or functional assay
[1] = biological target: HIV-1 Env of MB539.2B7 (HIV-1)
[2] = biological target: HIV-1 Env of MB201 (HIV-1)
[3] = biological target: HIV-1 Env of 96ZM651.02 (HIV-1)
[4] = biological target: HIV-1 Env of RW020.2 (HIV-1)
[5] = biological target: HIV-1 Env of WITO.33 (HIV-1)
[6] = biological target: HIV-1 Env of Q23.17 (HIV-1)
[7] = biological target: HIV-1 Env of ZM197.7 (HIV-1)
[8] = biological target: HIV-1 Env of CM244.ec1 (HIV-1)
[9] = biological target: HIV-1 Env of SC422.8 (HIV-1)
[10] = biological target: HIV-1 Env of KER2018.11 (HIV-1)
[11] = biological target: HIV-1 Env of CAP244.D3 (HIV-1)
[12] = biological target: HIV-1 Env of TH976.17 (HIV-1)
[13] = biological target: HIV-1 Env of CAP256.PI (HIV-1)
[14] = biological target: HIV-1 Env of KER2008.12 (HIV-1)
[15] = biological target: HIV-1 Env of DU156.12 (HIV-1)
[16] = biological target: HIV-1 Env of AC10.29 (HIV-1)
[17] = biological target: HIV-1 Env of UG037.8 (HIV-1)
[18] = biological target: HIV-1 Env of TRJO.58 (HIV-1)
[19] = biological target: HIV-1 Env of THRO.18 (HIV-1)
[20] = biological target: HIV-1 Env of BG505.w6m (HIV-1)
[21] = biological target: HIV-1 Env of DU422.01 (HIV-1)
[22] = biological target: HIV-1 Env of CAP45.G3 (HIV-1)
[23] = biological target: HIV-1 Env of CAP210.E8 (HIV-1)
[24] = biological target: HIV-1 Env of Q842.d12 (HIV-1)
[25] = biological target: HIV-1 Env of 6405.v4.c34 (HIV-1)
[26] = biological target: HIV-1 Env of ZM249.1 (HIV-1)
[27] = biological target: HIV-1 Env of 3016.V5.c36 (HIV-1)
[28] = biological target: HIV-1 Env of CAAN.A2 (HIV-1)
[29] = biological target: HIV-1 Env of ZM135.10a (HIV-1)
[30] = biological target: HIV-1 Env of CAP256.SU (HIV-1)
[31] = biological target: HIV-1 Env of TRO.11 (HIV-1)
[32] = biological target: HIV-1 Env of DU172.17 (HIV-1)
[33] = biological target: HIV-1 Env of RHPA.7 (HIV-1)
[34] = biological target: HIV-1 Env of CNE3 (HIV-1)
[35] = biological target: HIV-1 Env of C1080.c3 (HIV-1)
[36] = biological target: HIV-1 Env of ZM214.15 (HIV-1)
[37] = biological target: HIV-1 Env of REJO.67 (HIV-1)
[38] = biological target: HIV-1 Env of ZM53.12 (HIV-1)
[39] = biological target: HIV-1 Env of ZM109.4 (HIV-1)
[40] = biological target: HIV-1 Env of ZM233.6 (HIV-1)
[41] = biological target: HIV-1 Env of Q168.a2 (HIV-1)
[42] = biological target: HIV-1 Env of Q769.d22 (HIV-1)
[43] = biological target: HIV-1 Env of 0260.v5.c36 (HIV-1)
[44] = biological target: HIV-1 Env of QH0692.42 (HIV-1)
[45] = biological target: HIV-1 Env of 6535.3 (HIV-1)
[46] = biological target: HIV-1 Env of Q259.d2.17 (HIV-1)
[47] = biological target: HIV-1 Env of PVO.04 (HIV-1)
[48] = biological target: HIV-1 Env of Q461.e2 (HIV-1)

Substance: CAP256-VRC26.28 (antibody)
- IC50 (neutralization, TZM-bl) [1]: 29.4 µg/mL
- IC50 (neutralization, TZM-bl) [2]: > 50 µg/mL
- IC50 (neutralization, TZM-bl) [3]: > 50 µg/mL
- IC50 (neutralization, TZM-bl) [4]: > 50 µg/mL
- IC50 (neutralization, TZM-bl) [5]: > 50 µg/mL
- IC50 (neutralization, TZM-bl) [6]: 0.005 µg/mL
- IC50 (neutralization, TZM-bl) [7]: 0.193 µg/mL
- IC50 (neutralization, TZM-bl) [8]: 0.64 µg/mL
- IC50 (neutralization, TZM-bl) [9]: > 50 µg/mL
- IC50 (neutralization, TZM-bl) [10]: < 0.0006 µg/mL
- IC50 (neutralization, TZM-bl) [11]: > 50 µg/mL
- IC50 (neutralization, TZM-bl) [12]: > 50 µg/mL
- IC50 (neutralization, TZM-bl) [13]: > 50 µg/mL
- IC50 (neutralization, TZM-bl) [14]: 0.76 µg/mL
- IC50 (neutralization, TZM-bl) [15]: 0.171 µg/mL
- IC50 (neutralization, TZM-bl) [16]: > 50 µg/mL
- IC50 (neutralization, TZM-bl) [17]: > 50 µg/mL
- IC50 (neutralization, TZM-bl) [18]: > 50 µg/mL
- IC50 (neutralization, TZM-bl) [19]: > 50 µg/mL
- IC50 (neutralization, TZM-bl) [20]: 0.044 µg/mL
- IC50 (neutralization, TZM-bl) [21]: 0.075 µg/mL
- IC50 (neutralization, TZM-bl) [22]: 0.016 µg/mL
- IC50 (neutralization, TZM-bl) [23]: < 0.0006 µg/mL
- IC50 (neutralization, TZM-bl) [24]: 0.779 µg/mL
- IC50 (neutralization, TZM-bl) [25]: > 50 µg/mL
- IC50 (neutralization, TZM-bl) [26]: 0.082 µg/mL
- IC50 (neutralization, TZM-bl) [27]: 0.008 µg/mL
- IC50 (neutralization, TZM-bl) [28]: > 50 µg/mL
- IC50 (neutralization, TZM-bl) [29]: > 50 µg/mL
- IC50 (neutralization, TZM-bl) [30]: < 0.0006 µg/mL
- IC50 (neutralization, TZM-bl) [31]: > 50 µg/mL
- IC50 (neutralization, TZM-bl) [32]: > 50 µg/mL
- IC50 (neutralization, TZM-bl) [33]: > 50 µg/mL
- IC50 (neutralization, TZM-bl) [34]: > 50 µg/mL
- IC50 (neutralization, TZM-bl) [35]: 0.012 µg/mL
- IC50 (neutralization, TZM-bl) [36]: 6.85 µg/mL
- IC50 (neutralization, TZM-bl) [37]: > 50 µg/mL
- IC50 (neutralization, TZM-bl) [38]: < 0.0006 µg/mL
- IC50 (neutralization, TZM-bl) [39]: > 50 µg/mL
- IC50 (neutralization, TZM-bl) [40]: 0.002 µg/mL
- IC50 (neutralization, TZM-bl) [41]: 0.003 µg/mL
- IC50 (neutralization, TZM-bl) [42]: > 50 µg/mL
- IC50 (neutralization, TZM-bl) [43]: > 50 µg/mL
- IC50 (neutralization, TZM-bl) [44]: > 50 µg/mL
- IC50 (neutralization, TZM-bl) [45]: > 50 µg/mL
- IC50 (neutralization, TZM-bl) [46]: 0.012 µg/mL
- IC50 (neutralization, TZM-bl) [47]: 6 µg/mL
- IC50 (neutralization, TZM-bl) [48]: 1.59 µg/mL

Substance: CAP256-VRC26.33 (antibody)
- IC50 (neutralization, TZM-bl) [1]: > 50 µg/mL
- IC50 (neutralization, TZM-bl) [2]: > 50 µg/mL
- IC50 (neutralization, TZM-bl) [3]: > 50 µg/mL
- IC50 (neutralization, TZM-bl) [4]: > 50 µg/mL
- IC50 (neutralization, TZM-bl) [5]: > 50 µg/mL
- IC50 (neutralization, TZM-bl) [6]: > 50 µg/mL
- IC50 (neutralization, TZM-bl) [7]: 1.73 µg/mL
- IC50 (neutralization, TZM-bl) [8]: 0.036 µg/mL
- IC50 (neutralization, TZM-bl) [9]: > 50 µg/mL
- IC50 (neutralization, TZM-bl) [10]: 0.037 µg/mL
- IC50 (neutralization, TZM-bl) [11]: > 50 µg/mL
- IC50 (neutralization, TZM-bl) [12]: > 50 µg/mL
- IC50 (neutralization, TZM-bl) [13]: > 50 µg/mL
- IC50 (neutralization, TZM-bl) [14]: > 50 µg/mL
- IC50 (neutralization, TZM-bl) [15]: > 50 µg/mL
- IC50 (neutralization, TZM-bl) [16]: > 50 µg/mL
- IC50 (neutralization, TZM-bl) [17]: > 50 µg/mL
- IC50 (neutralization, TZM-bl) [18]: > 50 µg/mL
- IC50 (neutralization, TZM-bl) [19]: > 50 µg/mL
- IC50 (neutralization, TZM-bl) [20]: > 50 µg/mL
- IC50 (neutralization, TZM-bl) [21]: 29.5 µg/mL
- IC50 (neutralization, TZM-bl) [22]: 0.622 µg/mL
- IC50 (neutralization, TZM-bl) [23]: 0.017 µg/mL
- IC50 (neutralization, TZM-bl) [24]: > 50 µg/mL
- IC50 (neutralization, TZM-bl) [25]: > 50 µg/mL
- IC50 (neutralization, TZM-bl) [26]: 22.5 µg/mL
- IC50 (neutralization, TZM-bl) [27]: 0.506 µg/mL
- IC50 (neutralization, TZM-bl) [28]: > 50 µg/mL
- IC50 (neutralization, TZM-bl) [29]: > 50 µg/mL
- IC50 (neutralization, TZM-bl) [30]: 0.007 µg/mL
- IC50 (neutralization, TZM-bl) [31]: > 50 µg/mL
- IC50 (neutralization, TZM-bl) [32]: > 50 µg/mL
- IC50 (neutralization, TZM-bl) [33]: > 50 µg/mL
- IC50 (neutralization, TZM-bl) [34]: > 50 µg/mL
- IC50 (neutralization, TZM-bl) [35]: > 50 µg/mL
- IC50 (neutralization, TZM-bl) [36]: > 50 µg/mL
- IC50 (neutralization, TZM-bl) [37]: > 50 µg/mL
- IC50 (neutralization, TZM-bl) [38]: 0.015 µg/mL
- IC50 (neutralization, TZM-bl) [39]: > 50 µg/mL
- IC50 (neutralization, TZM-bl) [40]: 0.004 µg/mL
- IC50 (neutralization, TZM-bl) [41]: > 50 µg/mL
- IC50 (neutralization, TZM-bl) [42]: > 50 µg/mL
- IC50 (neutralization, TZM-bl) [43]: > 50 µg/mL
- IC50 (neutralization, TZM-bl) [44]: > 50 µg/mL
- IC50 (neutralization, TZM-bl) [45]: > 50 µg/mL
- IC50 (neutralization, TZM-bl) [46]: > 50 µg/mL
- IC50 (neutralization, TZM-bl) [47]: > 50 µg/mL
- IC50 (neutralization, TZM-bl) [48]: > 50 µg/mL
